No end group written: not given here.
Molecular target: T1, Dm eIF4E (residues 69–248, WT) (Drosophila melanogaster, UniProt P48598)
T1 construct: The truncated His6-eIF4E (residues 69–248) that was used in the ITC experiments; His6 (N, cleaved yes); made in house; host or cells: E. coli BL21 Star (DE3)
T1 sequence (P48598 69-248 isoform P48598-2): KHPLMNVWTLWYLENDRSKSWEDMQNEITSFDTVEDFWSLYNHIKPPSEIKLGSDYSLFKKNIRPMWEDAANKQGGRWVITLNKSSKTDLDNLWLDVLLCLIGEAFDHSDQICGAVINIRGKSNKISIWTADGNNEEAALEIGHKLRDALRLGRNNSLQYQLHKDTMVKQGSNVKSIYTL
Assay: ITC, binding to eIF4E (WT, residues 69–248)
Details: for entropic penalty (in words): bipartite regions; for TΔS / ΔG / Molar ratio / ΔH: eIF4E WT (69–248), pH 7.0, nb = no binding; for TΔS / ΔG / Kd / Molar ratio / ΔH: 20 °C; for Kd: VP-ITC, 20 mM Na-phosphate (pH 7.0), 150 mM NaCl, GB1-fused peptides (C+NC 10 μM, C 50 μM, L+NC 100 μM CUP or 200 μM Thor and 4E-T, eIF4G 20 μM) into eIF4E WT 1–20 μM, one-site model, each experiment repeated twice, nb = no binding
Method: Unless indicated otherwise, all the proteins were expressed in E. coli BL21 Star (DE3) cells (Invitrogen) that were grown in LB medium overnight at 20 °C. The lysis buffers were supplemented with DNaseI (5 μg ml^−1), lysozyme (1 mg ml^−1) and protease inhibitor cocktail (Roche). The truncated His6-eIF4E (residues 69–248) that was used in the ITC experiments and in Figs 2c and 5b was purified in lysis buffer containing 50 mM HEPES (pH 7.2), 300 mM NaCl, 20 mM imidazole and 2 mM β-mercaptoethanol using Ni^2+-affinity chromatography (HisTrap HP 5 ml, GE Healthcare) and eluted with a gradient of 20–500 mM imidazole. After the cleavage of the His6-tag with HRV3C protease (homemade), the protein was further purified using a heparin column (HiTrap Heparin HP 5 ml, GE Healthcare), followed by size exclusion chromatography (Superdex 75 16/60, GE Healthcare) in 20 mM Na-phosphate (pH 7.0), 300 mM NaCl and 2 mM dithiothreitol (DTT).
For the ITC measurements and the competition assays shown in Figs 4 and 5d–g, the 4E-BP peptides corresponding to the canonical (C) motifs, the combined (C+NC) motifs or L+NC were expressed with an HRV3C cleavable N-terminal MBP-tag and a non-cleavable C-terminal GB1 domain. The cells were lysed by sonication in lysis buffer containing 50 mM HEPES (pH 7.2), 300 mM NaCl and 2 mM DTT. The proteins were purified from the cleared lysates using amylose resin (New England Biolabs) followed by the cleavage of the MBP tag with HRV3C protease overnight at 4 °C. The proteins were further purified by size exclusion chromatography (Superdex 75 16/60, GE Healthcare) in 20 mM Na-phosphate (pH 7.0), 300 mM NaCl and 2 mM DTT. For the eIF4G fragment (residues 578–650) the MBP was removed after cleavage with TEV protease through an additional anion exchange chromatography (HiTrap Q HP 5 ml, GE Healthcare) before the final gel filtration.
The ITC experiments were performed using a VP-ITC microcalorimeter (MicroCal) at 20 °C. The solution of eIF4E (residues 69–248, WT or mutant: 1–20 μM) in the calorimetric cell was titrated with tenfold concentrated solutions of GB1-stabilized peptides corresponding to 4E-BPs C+NC (10 μM), C (50 μM), L+NC (100 μM CUP, 200 μM Thor and 4E-T) or eIF4G (residues 578–650, 20 μM) that were dissolved in the same buffer (20 mM Na-phosphate (pH 7.0) and 150 mM NaCl). The titration experiments consisted of an initial injection of 2 μl followed by 28 injections of 10 μl at an interval of 240 s. Each binding experiment was repeated twice. The thermodynamic parameters were estimated using a one-site binding model (Origin version 7.0), whereby the datapoint of the first injection was removed for the analysis.
(d) minimal regions for binding to eIF4E (wild-type (WT), residues 69–248). The top panels represent the raw data (μcal sec−1) whereas the bottom panels show the integrated data (kcal mole−1 of injectant) of heat changes that were best-fitted using a one-site binding model. The thermodynamic parameters correspond to heat changes that were detected when 4E-BPs (10 µM) or eIF4G (20 µM) were injected into the calorimetric cell (1.4 mL) containing 1 µM (a,b,c) or 2 µM (d) eIF4E.
Supplementary Figure 4. Thermodynamic parameters for the interaction of eIF4E with 4E-BP peptides. (a–f) ITC profiles for the interaction of eIF4E (WT, residues 69-248) and CUP (a,d), Thor (b,e) and 4E-T (c,f) peptides containing only the canonical motifs (a–c) or the L+NC regions (d–f). The measurements were performed as described in Supplementary
Fig. 3. The solutions contained the peptides corresponding to the canonical motifs (50 µM) or the L+NC regions (100 µM for CUP and 200 µM for Thor and 4E-T). The eIF4E concentration in the calorimetric cell was 5 µM (for the C peptides), 10 µM (for CUP L+NC) and 20 µM (for Thor and 4E-T L+NC peptides).
(1 picture or pasted object on this page, not shown here)

| Substance | entropic penalty (in words) (eIF4E WT) | TΔS [kcal/mol] | ΔG [kcal/mol] | Kd [nM] | Molar ratio | ΔH [kcal/mol] | affinity of the 4E-T C peptide relative to CUP and Thor C peptides (eIF4E WT, C motif peptides) |
| --- | --- | --- | --- | --- | --- | --- | --- |
| 4E-T C+NC: 4E-T residues 9–44, eIF4E-binding region short, C-terminal GB1 | lower entropic penalties | -11.7 | -11.11 | – | – | – | – |
| 4E-T C: 4E-T residues 9–21, canonical motif | – | -8.16 | -10.45 | 16 | 0.95±0.01 | -18.6 ± 0.7 | approximately one and two orders of magnitude higher than those of the CUP and Thor peptides, respectively |
| CUP C+NC: CUP residues 325–376, eIF4E-binding region short, C-terminal GB1 (KSYTRSRLMDIRNGMFNALMHRSKESFVMPRIATCDDIELEGRLRRMNIWRT-GB1; UniProt Q9VMA3 325-376, looked up, fragment) | highest entropic penalty | -23.9 | -10.78 | 9.1 | 1.05±0.02 | -34.5 ± 0.35 | – |
| Thor C+NC: Thor residues 50–83, eIF4E-binding region short, C-terminal GB1 (TKLIYERAFMKNLRGSPLSQTPPSNVPSCLLRGT-GB1; UniProt Q9XZ56 50-83, looked up, fragment) | lower entropic penalties | -4.9 | -11.87 | – | – | – | – |
| Thor C: Thor residues 50–63, canonical motif | – | -2.24 | – | – | – | – | – |
